Measurements: US20060257938A1, “Method of screening for drugs that block ligand binding to a lipid binding protein” (priority 2005, published 2006)
Where a chain is given by its changes, count along the chain named. Numbers in names are those of the source.

B1: D74F, L72A: FABP probe clone, substitutions D74F, L72A vs SEQ ID NO: 2 (protein, listed as Rattus norvegicus)
chain: AFDGTWKVDRNENYEKFMEKMGINVVKRKLGAHDNLKLTITQEGNKFTVKESSNFRNIDVVFELGVDFAYSAAFGTELTGTWTMEGNKLVGKFKRVDNGKELIAVREISGNELIQTYTYEGVEAKRIFKKE
modifications: PEPTIDE (1)...(131) wild-type rat intestinal fatty acid binding protein
B2: Y117A, L72A: FABP probe clone, substitutions Y117A, L72A vs SEQ ID NO: 2 (protein, listed as Rattus norvegicus)
chain: B1 chain with F74D, Y117A
modifications: PEPTIDE (1)...(131) wild-type rat intestinal fatty acid binding protein
B3: L78F, L72A: FABP probe clone, substitutions L78F, L72A vs SEQ ID NO: 2 (protein, listed as Rattus norvegicus)
chain: B1 chain with F74D, L78F
modifications: PEPTIDE (1)...(131) wild-type rat intestinal fatty acid binding protein
B4: L72G: FABP probe clone, substitution L72G vs SEQ ID NO: 2 (protein, listed as Rattus norvegicus)
chain: B1 chain with A72G, F74D
modifications: PEPTIDE (1)...(131) wild-type rat intestinal fatty acid binding protein
B5: W82F, L72A: FABP probe clone, substitutions W82F, L72A vs SEQ ID NO: 2 (protein, listed as Rattus norvegicus)
chain: B1 chain with F74D, W82F
modifications: PEPTIDE (1)...(131) wild-type rat intestinal fatty acid binding protein
B6: A73I, L72A: FABP probe clone, substitutions A73I, L72A vs SEQ ID NO: 2 (protein, listed as Rattus norvegicus)
chain: B1 chain with A73I, F74D
modifications: PEPTIDE (1)...(131) wild-type rat intestinal fatty acid binding protein
B7: L72A: FABP probe clone, substitution L72A vs SEQ ID NO: 2 (protein of ADIFAB2) (protein, listed as Rattus norvegicus)
chain: B1 chain with F74D
modifications: PEPTIDE (1)...(131) wild-type rat intestinal fatty acid binding protein
B8: A73F, L72A: FABP probe clone, substitutions A73F, L72A vs SEQ ID NO: 2 (protein, listed as Rattus norvegicus)
chain: B1 chain with A73F, F74D
modifications: PEPTIDE (1)...(131) wild-type rat intestinal fatty acid binding protein
B9: L72M: FABP probe clone, substitution L72M vs SEQ ID NO: 2 (protein, listed as Rattus norvegicus)
chain: B1 chain with A72M, F74D
modifications: PEPTIDE (1)...(131) wild-type rat intestinal fatty acid binding protein
B10: Y117S, L72A: FABP probe clone, substitutions Y117S, L72A vs SEQ ID NO: 2 (protein, listed as Rattus norvegicus)
chain: B1 chain with F74D, Y117S
modifications: PEPTIDE (1)...(131) wild-type rat intestinal fatty acid binding protein
B11: R106W, L72A: FABP probe clone, substitutions R106W, L72A vs SEQ ID NO: 2 (protein, listed as Rattus norvegicus)
chain: B1 chain with F74D, R106W
modifications: PEPTIDE (1)...(131) wild-type rat intestinal fatty acid binding protein
B12: L1P12E11: FABP probe, substitutions Y14L L72W vs SEQ ID NO: 2 (protein, listed as Rattus norvegicus)
chain: B1 chain with Y14L, A72W, F74D
modifications: PEPTIDE (1)...(131) wild-type rat intestinal fatty acid binding protein
B13: 115H, 72A (protein, listed as Rattus norvegicus)
chain: B1 chain with F74D, Q115H
modifications: PEPTIDE (1)...(131) wild-type rat intestinal fatty acid binding protein
B14: 55Q, 72A (protein, listed as Rattus norvegicus)
chain: B1 chain with F55Q, F74D
modifications: PEPTIDE (1)...(131) wild-type rat intestinal fatty acid binding protein
B15: 11M, 72A (protein, listed as Rattus norvegicus)
chain: B1 chain with N11M, F74D
modifications: PEPTIDE (1)...(131) wild-type rat intestinal fatty acid binding protein
B16: 82V, 72A (protein, listed as Rattus norvegicus)
chain: B1 chain with F74D, W82V
modifications: PEPTIDE (1)...(131) wild-type rat intestinal fatty acid binding protein
B17: 104F, 72A (protein, listed as Rattus norvegicus)
chain: B1 chain with F74D, A104F
modifications: PEPTIDE (1)...(131) wild-type rat intestinal fatty acid binding protein
B18: 104G, 72A (protein, listed as Rattus norvegicus)
chain: B1 chain with F74D, A104G
modifications: PEPTIDE (1)...(131) wild-type rat intestinal fatty acid binding protein
B19: 55V, 72A (protein, listed as Rattus norvegicus)
chain: B1 chain with F55V, F74D
modifications: PEPTIDE (1)...(131) wild-type rat intestinal fatty acid binding protein
B20: 14L 72G (protein, listed as Rattus norvegicus)
chain: B1 chain with Y14L, A72G, F74D
modifications: PEPTIDE (1)...(131) wild-type rat intestinal fatty acid binding protein
B21: 23Y, 72A (protein, listed as Rattus norvegicus)
chain: B1 chain with I23Y, F74D
modifications: PEPTIDE (1)...(131) wild-type rat intestinal fatty acid binding protein

Test: Probe fluorescence ratio response to linolenic acid relative to ADIFAB2
Assay type: binding
Conditions: Table 3
Outline: (§1)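 Each fatty acid's response was expressed relative to ADIFAB2, the rI-FABP-L72A probe, as ΔR/ΔRreference. ΔR is the change in the background-corrected two-wavelength intensity ratio R=Fλ1/Fλ2 from its analyte-free baseline R0. Emission was read near about 420-480 nm for unbound and about 495-580 nm for FFA-bound probe.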

Molecule	DR/DRAD2 LNA
B1	1.04
B2	0.62
B3	2.05
B4	0.48
B5	0.76
B6	0.03
B7	1.16
B8	1.86
B9	1.35
B10	1.07
B11	1.03

Same assay, conditions: Table 4

Molecule	ΔR/DRAΔ2 LNA
B12	−0.7

Same assay, conditions: response relative to ADIFAB2

Molecule	DR/DR LNA
B13	0.697
B14	0.492
B15	0.651
B16	0.456
B17	0.436
B18	0.687
B19	0.477
B20	0.886
B21	0.443

Test: Probe fluorescence ratio response to arachidonic acid relative to ADIFAB2
Assay type: binding
Conditions: Table 3; Arachidonic acid
Outline: as §1

Molecule	DR/DRAD2 AA
B1	0.44
B2	1.27
B3	2.04
B4	0.62
B5	0.68
B6	0.38
B7	1.12
B8	1.21
B9	1.31
B10	1.35
B11	1.11

Same assay, conditions: Table 4; Arachidonic acid

Molecule	ΔR/DRAΔ2 AA
B12	−0.5

Same assay, conditions: arachidonic acid; response relative to ADIFAB2

Molecule	DR/DR AA
B13	0.891
B14	0.600
B15	0.697
B16	0.757
B17	0.686
B18	0.866
B19	0.581
B20	0.873
B21	0.492

Test: Probe fluorescence ratio response to oleic acid relative to ADIFAB2
Assay type: binding
Conditions: Table 3
Outline: as §1

Molecule	DR/DRAD2 OA
B1	0.51
B2	0.93
B3	1.83
B4	0.52
B5	0.78
B6	−0.04
B7	1.15
B8	0.73
B9	1.49
B10	1.19
B11	0.99

Same assay, conditions: Table 4

Molecule	ΔR/DRAΔ2 OA
B12	−1.0

Same assay, conditions: response relative to ADIFAB2

Molecule	DR/DR OA
B13	0.675
B14	0.536
B15	0.463
B16	0.461
B17	0.462
B18	0.691
B19	0.468
B20	0.730
B21	0.412

Test: Probe fluorescence ratio response to palmitic acid relative to ADIFAB2
Assay type: binding
Conditions: Table 3
Outline: as §1

Molecule	DR/DRAD2 PA
B1	0.93
B2	0.32
B3	0.91
B4	0.26
B5	0.41
B6	−0.04
B7	1.02
B8	1.13
B9	1.32
B10	0.55
B11	0.41

Same assay, conditions: Table 4

Molecule	ΔR/DRAΔ2 PA
B12	−0.1

Same assay, conditions: response relative to ADIFAB2

Molecule	DR/DR PA
B13	0.514
B14	0.428
B15	0.543
B16	0.345
B17	0.263
B18	0.650
B19	0.374
B20	0.334
B21	0.281

Test: Probe fluorescence ratio response to linoleic acid relative to ADIFAB2
Assay type: binding
Conditions: Table 3
Outline: as §1

Molecule	DR/DRAD2 LA
B1	0.67
B2	1.01
B3	2
B4	0.48
B5	1.08
B6	−0.04
B7	1.14
B8	1.23
B9	1.46
B10	1.42
B11	1.04

Same assay, conditions: Table 4

Molecule	ΔR/DRAΔ2 LA
B12	−0.7

Same assay, conditions: response relative to ADIFAB2

Molecule	DR/DR LA
B13	0.741
B14	0.474
B15	0.576
B16	0.519
B17	0.486
B18	0.665
B19	0.432
B20	0.817
B21	0.442
